From patent US20230265179A1 (TWIST BIOSCIENCE, published 2023) come the findings set out here.

The chains are these.
T1: IL1RL1 over-expressed on Expi293 cells (UniProt Q01638 19-556, limits assumed)
T1 construct: whole, on cells; Target of the flow cytometry MFI ratio (over-expressing cells over parent cells); also called cytokine over-expressing Expi293 cells
T1 sequence (looked up): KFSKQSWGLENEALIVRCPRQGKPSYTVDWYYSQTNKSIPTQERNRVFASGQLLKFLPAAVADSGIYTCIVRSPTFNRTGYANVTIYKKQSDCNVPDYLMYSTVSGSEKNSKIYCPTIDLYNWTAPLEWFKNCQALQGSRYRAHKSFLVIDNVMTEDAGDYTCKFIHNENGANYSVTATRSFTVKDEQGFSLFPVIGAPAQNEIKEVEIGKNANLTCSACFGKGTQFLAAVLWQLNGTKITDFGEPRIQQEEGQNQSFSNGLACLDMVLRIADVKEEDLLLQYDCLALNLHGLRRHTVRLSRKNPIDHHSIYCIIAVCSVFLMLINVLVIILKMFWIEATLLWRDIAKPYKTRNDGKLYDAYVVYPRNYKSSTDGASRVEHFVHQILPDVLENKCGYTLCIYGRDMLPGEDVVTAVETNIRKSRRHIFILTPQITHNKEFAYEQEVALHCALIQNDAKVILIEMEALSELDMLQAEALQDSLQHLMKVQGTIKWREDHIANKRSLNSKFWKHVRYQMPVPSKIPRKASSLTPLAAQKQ

T2: IL1RL1 (UniProt Q01638 19-328, limits assumed)
T2 construct: SPR analyte
T2 sequence (looked up): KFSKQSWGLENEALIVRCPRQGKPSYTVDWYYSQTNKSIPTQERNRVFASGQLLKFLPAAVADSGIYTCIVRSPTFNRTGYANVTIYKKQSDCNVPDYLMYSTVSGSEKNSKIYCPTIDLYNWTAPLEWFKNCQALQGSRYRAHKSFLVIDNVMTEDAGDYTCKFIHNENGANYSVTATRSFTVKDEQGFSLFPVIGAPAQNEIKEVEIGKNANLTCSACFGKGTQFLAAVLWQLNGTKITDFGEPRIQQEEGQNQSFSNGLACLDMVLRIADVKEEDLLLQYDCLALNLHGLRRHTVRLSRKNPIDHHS

B1: IL1RL1-37 (Fc fusion, not shown: a dimerising Fc or GST)
VHH: EVQLVESGGGLVQPGGSLRLSCAASGGTFGSYAMGWFRQAPGKEREFVAAINWSGARTYYADSVKGRFTISADNSKNTAYLQMNSLKPEDTAVYYCAVSQPLNYYTYYDARRYDWGQGTLVTVSS
notes: VHH-Fc on IgG2 Fc
B2: IL1RL1-42 (Fc fusion, not shown: a dimerising Fc or GST)
VHH: EVQLVESGGGLVQPGGSLRLSCAASGFILDYYAMGWFRQAPGKEREWVSSIGIAGTPTFYADSVKGRFTISADNSKNTAYLQMNSLKPEDTAVYYCAGRLSNGLDWGQGTLVTVSS
notes: VHH-Fc on IgG2 Fc
B3: IL1RL1-41 (Fc fusion, not shown: a dimerising Fc or GST)
VHH: EVQLVESGGGLVQPGGSLRLSCAASGGTLSSYIMGWFRQAPGKEREGVAAIDSDGSTSYADSVKGRFTISADNSKNTAYLQMNSLKPEDTAVYYCAARPVRVDDISLPVGFDWGQGTLVTVSS
notes: VHH-Fc on IgG2 Fc
B4: IL1RL1-43 (Fc fusion, not shown: a dimerising Fc or GST)
VHH: EVQLVESGGGLVQPGGSLRLSCAASGRTYAMGWFRQAPGKEREWVASISTSGSTITPYADSVKGRFTISADNSKNTAYLQMNSLKPEDTAVYYCAANVASGLKILQWGQGTLVTVSS
notes: VHH-Fc on IgG2 Fc
B5: IL1RL1-48 (Fc fusion, not shown: a dimerising Fc or GST)
VHH: EVQLVESGGGLVQPGGSLRLSCAASGTTFSSDVMGWFRQAPGKERELVAVIIDSRTTKYADSVKGRFTISADNSKNTAYLQMNSLKPEDTAVYYCAAVGGATTVTASEWDWGQGTLVTVSS
notes: VHH-Fc on IgG2 Fc
B6: IL1RL1-77 (Fc fusion, not shown: a dimerising Fc or GST)
VHH: B5 VHH with T27R, D32Y, L47F
notes: VHH-Fc on IgG2 Fc
B7: IL1RL1-51 (Fc fusion, not shown: a dimerising Fc or GST)
VHH: EVQLVESGGGLVQPGGSLRLSCAASGVTLDLYAMGWFRQAPGKEREWVSSIGIAGTPTFYADSVKGRFTISADNSKNTAYLQMNSLKPEDTAVYYCAANYGGSVLYNWGQGTLVTVSS
notes: VHH-Fc on IgG2 Fc

Positions count from the first letter of the chain named.

For one assay, the target named is T1, IL1RL1 over-expressed on Expi293 cells. Description: flow cytometry, 100 nM antibody, over-expressing Expi293 / parent cells. In general terms: In flow cytometry, cells or beads pass a laser one at a time.
Protocol: All incubations and washes were in buffer containing PBS+1% BSA. MFI Ratio is defined by the mean fluorescence intensity (MFI) of the cytokine over-expressing Expi293 cell over the Expi293 parent cell. […] EC50 was calculated in GraphPad Prism.
Turning to B1, the “100 nM FACS (MFI Ratio)” value came out at 1.25 MFI ratio.
Still for that read-out and setting: the figure for B2 is 0.86 MFI ratio.
Same read-out and setting: the value for B3 was 0.55 MFI ratio; that for B4 was 1.25 MFI ratio; that for B5 was 1.06 MFI ratio.
With B6, the “100 nM FACS (MFI Ratio)” value was 1.12 MFI ratio.
Turning to B7, the “100 nM FACS (MFI Ratio)” value turned out to be 1.28 MFI ratio.

The next assay addresses T2, IL1RL1. Description: SPR (Carterra LSA), antibody amine-coupled.
Protocol: SPR experiments were performed on a Carterra LSA SPR biosensor equipped with a HC30M chip at 25° C. in HBS-TE. Antibodies were diluted to 10 μg/mL and amine-coupled to the sensor chip by EDC/NHS activation, followed by ethanolamine HCl quenching. Increasing concentrations of analyte were flowed over the sensor chip in HBS-TE with 0.5 mg/mL BSA with 5-minute association and 15-minute dissociation. Following each injection cycle the surface was regenerated with 2× 30-second injections of IgG elution buffer (Thermo). Data were analyzed in Carterra's Kinetics Tool software with 1:1 binding model.
With B1, the binding result was “no binding”.
The same measure, in the same setting: the value for B2 was “no binding”; that for B3 was “no binding”.
On the same count and under the same terms, the entry for B4 is “no binding”; for B5 it is “no binding”; for B6 it is “no binding”.
In the case of B7, the binding result is reported as “no binding”.
